Source: patent US20210002644, “ANTI-CHYMASE APTAMER AND USE FOR SAME” (RIBOMIC INC., published 2021)
Residue numbers refer to the chain shown, from its start.

Columns and labels:
[1] = target: T1, chymase (recombinant, SIGMA) (UniProt P23946 P23946:22-247); assay: inhibition; Suc-AAPF-MCA substrate, 0.005 ug chymase, single measurement; details: tags: SIGMA recombinant
T1 sequence: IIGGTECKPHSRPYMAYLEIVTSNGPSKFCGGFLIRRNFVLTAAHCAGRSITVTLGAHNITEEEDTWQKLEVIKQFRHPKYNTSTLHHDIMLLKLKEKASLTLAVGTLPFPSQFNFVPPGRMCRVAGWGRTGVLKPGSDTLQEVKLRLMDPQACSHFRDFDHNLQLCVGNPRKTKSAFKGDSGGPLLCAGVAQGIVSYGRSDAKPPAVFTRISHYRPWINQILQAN
Procedure: (§1) The assay was performed using a 96-well plate (F16 Black Maxisorp Fluoronunc, manufactured by Nunc), with a reaction mixture volume of 100 μL, in solution C as a buffer solution. Here, the solution C is a mixed solution of 145 mM sodium chloride, 5.4 mM potassium chloride, 1.8 mM calcium chloride, 0.8 mM magnesium chloride, 20 mM Tris (pH 7.6), and 0.05% Tween20. First, nucleic acid was serially diluted in solution C to obtain 50 μL solutions. After 10 μL of the 1 mM substrate prepared in solution C was added thereto, the plate was set to the microplate reader SpectraMax190 (manufactured by Molecular Devices Corporation), and incubated at 37° C. for 5 minutes. Separately, 0.05 μg of chymase (recombinant, manufactured by SIGMA) was diluted in solution C to obtain a 40 μL chymase solution, and incubated at 37° C. for 5 minutes. The chymase solution was added to the mixture of the nucleic acid and substrate to initiate an enzyme reaction. The final chymase concentration in the reaction mixture was 16.7 nM, the final substrate concentration being 100 μM. The plate containing the reaction mixture was set to the microplate reader SpectraMax190 (manufactured by Molecular Devices Corporation), and examined for time-dependent changes in the fluorescence intensity at 37° C. for 5 minutes (or 30 minutes) (excitation wavelength 380 nm, detection wavelength 460 nm). A linear approximation of the increase in the fluorescence of the AMC released from the substrate by chymase activity was generated, and its slope was taken as the initial velocity […]. For control, samples were treated and analyzed in the same manner in two cases: use of a 30N (a nucleotide of 30 consecutive bases represented by N; N is A, G, C or T) nucleic acid pool (negative control), and use of chymostatin, a known chymotrypsin-like serine protease inhibitor (positive control). Taking the initial reaction velocity without the nucleic acid and inhibitor (V₀) as a 100% enzyme activity, the inhibitory rate of each test substance was calculated using the following equation: […]
In the evaluation of SEQ ID NO: 21-25, a method similar to the evaluation method of inhibitory activity against chymase shown in Example 1 by using MCA as a substrate except that the amount chymase was changed from 0.05 μg to 0.005 μg was used for measurement.

[2] = target: T1, chymase (recombinant, SIGMA); assay: inhibition; Suc-AAPF-MCA substrate, 37 C; details: tags: SIGMA recombinant
Procedure: as §1, with “By detecting the fluorescence of this AMC, the enzyme activity of chymase can be determined. The assay” for “The assay”

[3] = target: T2, chymase (native, human skin mast cell) (Homo sapiens, UniProt P23946 P23946:22-247); assay: inhibition; angiotensin I substrate; details: tags: Calbiochem Human Skin
T2 sequence: T1 sequence
Procedure: (§2) The total volume of solution for an enzyme reaction in the assay was set to 50 μL, and the reaction was performed in solution C buffer. At first, native (manufactured by Calbiochem) was diluted with solution C to give 5 μL thereof. Here, the native is chymase purified from human skin mast cell. The nucleic acid was serially diluted with solution C at a concentration of 0.0027-2 μM to give 25 μL thereof. The chymase solution (5 μL) and the nucleic acid solution (25 μL) were mixed, and the mixture was incubated at 37° C. for 5 min. On the other hand, […] angiotensin I (manufactured by PEPTIDE […], INC.) was prepared in solution C to give 20 μL thereof, which was incubated at 37° C. for 5 min. The angiotensin I solution was added to a mixture of chymase and nucleic acid to start an enzyme reaction. The final chymase concentration of the reaction solution was 0.5 nM, and the final substrate concentration was 50 μM. After reaction at 37° C. for 90 min, ice-cooled 30% trichloroacetic acid solution (25 μL) was added to quench the reaction. The whole mixture was centrifuged at 4° C., 14000 rpm for 10 min, and the supernatant (30 μL) was used for the next fluorescence induction reaction.
(§3) The above-mentioned supernatant (30 μL) was added to a 96 well plate (black, manufactured by Costar), a solution (15 μL) of 2% o-phthalaldehyde (manufactured by SIGMA) in methanol and 0.3M NaOH solution (170 μL) were added to each well, and the mixture was incubated at room temperature for 10 min. Then, 3M HCl solution (25 μL) was added to quench the reaction. The plate was set on a microplate reader SpectraMax190 (manufactured by Molecular device) and the fluorescence intensity was measured at an excitation wavelength of 355 nm and a fluorescence wavelength of 460 nm.
The nucleic acids of SEQ ID NO: 11-20 were all produced by chemical synthesis. In the evaluation of SEQ ID NO: 11-20, a method similar to the evaluation method of inhibitory activity against chymase shown in Example 1 by using angiotensin I as a substrate was used for measurement. […] The IC₅₀ value is a mean of 2 or 3 measurements.

[4] = target: T2, chymase (native, human skin mast cell); assay: inhibition; angiotensin I substrate; details: tags: Calbiochem Human Skin; remark: listed apart in the source
Procedure: as §2, §3
All nucleic acids of SEQ ID NO: 33(1)-33(18) were prepared by chemical synthesis. The aptamers shown by these sequences were measured by a method similar to the inhibitory activity evaluation method for chymase inhibitory activity shown in Example 1 by using angiotensin I as a substrate. In the Table, the IC₅₀ value is a mean of 2 or 3 measurements.

B1: SEQ ID NO: 21 (ssRNA)
RNA: GGCAGAUGAUCGGACAUAACAGGUUAGAUAGAGUUAAAAACCUGGGGUGUCAA
modifications: 2'-F pyrimidines (inferred)
Work on B1 yielded an IC50 [1] of 5.7 nM.

B2: SEQ ID NO: 7 (ssRNA)
RNA: GGGAGCAGGAGAGAGGUCAGAUGUUUGGUAGUAACUGGAAUAGGGGCUACAGGCCUAUGCGUGCUAGUGUGA
modifications: 2'-F pyrimidines (U, C); purines 2'-OH
For B2, the IC50 [2] was 52 nM.

B3: SEQ ID NO: 6 (ssRNA)
RNA: GGGAGCAGGAGAGAGGUCAGAUGUCAUGACUUAUAGGUAACCGAUAAUGGGGGCCUAUGCGUGCUAGUGUGA
modifications: 2'-F pyrimidines (U, C); purines 2'-OH
With B3 the IC50 [2] was 5.5 nM.

B4: SEQ ID NO: 15 (ssRNA)
RNA: GAUGAUCGGACAUAACAUUGUUGGGGUGUCAAGCC
modifications: 2'-F pyrimidines (U, C); purines 2'-OH
B4 gave an IC50 [3] of 1.4 nM.

B5: SEQ ID NO: 22 (ssRNA)
RNA: GGCAGAUGAUCGGACAUAACAGUUAGAUAGAGUUAAAAACUGGGGUGUCAA
modifications: 2'-F pyrimidines (inferred)
With B5 the IC50 [1] was 5 nM.

B6: SEQ ID NO: 5 (ssRNA)
RNA: GGGAGCAGGAGAGAGGUCAGAUGAUGACCGAUUAUAGGUAACCACUUAGGGGGCCUAUGCGUGCUAGUGUGA
modifications: 2'-F pyrimidines (U, C); purines 2'-OH
Work on B6 yielded an IC50 [2] of 7 nM.

B7: SEQ ID NO: 8 (ssRNA)
RNA: B6 RNA with G26U, A27G, C28A, U32C, A44U, C45U, U47A, A48C
modifications: 2'-F pyrimidines (U, C); purines 2'-OH
B7 gave an IC50 [2] of 35 nM.

B8: SEQ ID NO: 16 (ssRNA)
RNA: GGCAGAUGAUCGGACAUAACAUUGUUGGGGUGUCAA
modifications: 2'-F pyrimidines (U, C); purines 2'-OH
With B8 the IC50 [3] was 2 nM.

B9: SEQ ID NO: 4 (ssRNA)
RNA: GGGAGCAGGAGAGAGGUCAGAUGUAACUCUAUUGAGGGGCAUCAGCACAGUAGCCUAUGCGUGCUAGUGUGA
modifications: 2'-F pyrimidines (U, C); purines 2'-OH
Binder B9 has an IC50 [2] of 10.8 nM.

B10: SEQ ID NO: 19 (ssRNA)
RNA: AUCGGACAUAACAUUGUUGGGGUGUCAA
modifications: 2'-F pyrimidines (U, C); purines 2'-OH
Work on B10 yielded an IC50 [3] of 14.4 nM.

B11: SEQ ID NO: 20 (ssRNA)
RNA: GAUGAUCGGACAUAACAUUGUUGGGGUGUCA
modifications: 2'-F pyrimidines (U, C); purines 2'-OH
With B11 the IC50 [3] was 1.8 nM.

B12: SEQ ID NO: 11 (ssRNA)
RNA: GGGUCAGAUGAUCGGACAUAACAUUGUUGGGGUGUCAAGGCCC
modifications: 2'-F pyrimidines (U, C); purines 2'-OH
B12 gave an IC50 [3] of 54.7 nM.

B13: SEQ ID NO: 17 (ssRNA)
RNA: GAUGAUCGGACAUAACAUUGUUGGGGUGUCAA
modifications: 2'-F pyrimidines (U, C); purines 2'-OH
B13 was tested, and the IC50 [3] was 1.4 nM.

B14: SEQ ID NO: 14 (ssRNA)
RNA: GGCAGAUGAUCGGACAUAACAUUGUUGGGGUGUCAAGCC
modifications: 2'-F pyrimidines (U, C); purines 2'-OH
B14 gave an IC50 [3] of 6.8 nM.

B15: SEQ ID NO: 3 (ssRNA)
RNA: GGGAGCAGGAGAGAGGUCAGAUGAUAACCAGUUGGGGGGUCAAUUACAUGGGACCUAUGCGUGCUAGUGUGA
modifications: 2'-F pyrimidines (U, C); purines 2'-OH
B15 was tested, and the IC50 [2] was 26 nM.

B16: SEQ ID NO: 33(6) (mixed)
RNA: AUGAUCGGACAUAACUAAUUAGGGGUGUCAA
modifications: idT-A(M)U(M)G(M)A(M)U(F)C(F)G(M)G(M)A(M)C(F)A(M)U(M)AAC(M)U(F)A(M)A(M)U(M)U(M)A(M)G(M)GG(M)G(M)TG(M)U(M)C(M)A(M)A(M)-idT (F=2'-F, M=2'-OMe)
B16 was tested, and the IC50 [4] was 0.053 nM.

B17: SEQ ID NO: 33(15) (mixed)
RNA: B16 RNA
modifications: idT-A(M)U(M)G(M)A(M)U(F)C(F)G(M)G(M)A(M)C(M)A(M)U(M)AAC(M)U(F)A(M)A(M)U(M)T(M)A(M)G(M)GG(M)G(M)TG(M)U(M)C(M)A(M)A(M)-idT (F=2'-F, M=2'-OMe)
For B17, the IC50 [4] was 0.072 nM.

B18: SEQ ID NO: 33(11) (mixed)
RNA: B16 RNA
modifications: idT-A(M)U(M)G(M)A(M)U(F)C(F)G(M)G(M)A(M)C(M)A(M)U(M)AAC(M)U(F)A(M)A(M)TU(M)A(M)G(M)GG(M)G(M)TG(M)U(M)C(M)A(M)A(M)-idT (F=2'-F, M=2'-OMe)
B18 was tested, and the IC50 [4] was 0.051 nM.

B19: SEQ ID NO: 33(13) (mixed)
RNA: B16 RNA
modifications: idT-A(M)U(M)G(M)A(M)U(F)C(F)G(M)G(M)A(M)C(M)A(M)U(M)AAC(M)T(M)A(M)A(M)U(M)U(M)A(M)G(M)GG(M)G(M)TG(M)U(M)C(M)A(M)A(M)-idT (F=2'-F, M=2'-OMe)
In the case of B19, the IC50 [4] is reported as 0.069 nM.

B20: SEQ ID NO: 33(14) (mixed)
RNA: B16 RNA
modifications: idT-A(M)U(M)G(M)A(M)U(F)C(F)G(M)G(M)A(M)C(M)A(M)U(M)AAC(M)U(F)A(M)A(M)T(M)U(M)A(M)G(M)GG(M)G(M)TG(M)U(M)C(M)A(M)A(M)-idT (F=2'-F, M=2'-OMe)
B20 gave an IC50 [4] of 0.075 nM.

B21: SEQ ID NO: 33(7) (mixed)
RNA: B16 RNA
modifications: idT-A(M)U(M)G(M)A(M)U(F)C(F)G(M)G(M)A(M)C(M)A(M)U(M)A(M)AC(M)U(F)A(M)A(M)U(M)U(M)A(M)G(M)GG(M)G(M)TG(M)U(M)C(M)A(M)A(M)-idT (F=2'-F, M=2'-OMe)
B21 was tested, and the IC50 [4] was 0.071 nM.

B22: SEQ ID NO: 33(10) (mixed)
RNA: B16 RNA
modifications: idT-A(M)U(M)G(M)A(M)U(F)C(F)G(M)G(M)A(M)C(M)A(M)U(M)AAC(M)TA(M)A(M)U(M)U(M)A(M)G(M)GG(M)G(M)TG(M)U(M)C(M)A(M)A(M)-idT (F=2'-F, M=2'-OMe)
In the case of B22, the IC50 [4] is reported as 0.071 nM.

B23: SEQ ID NO: 33(8) (mixed)
RNA: B16 RNA
modifications: idT-A(M)U(M)G(M)A(M)U(F)C(F)G(M)G(M)A(M)C(M)A(M)U(M)AA(M)C(M)U(F)A(M)A(M)U(M)U(M)A(M)G(M)GG(M)G(M)TG(M)U(M)C(M)A(M)A(M)-idT (F=2'-F, M=2'-OMe)
In the case of B23, the IC50 [4] is reported as 0.061 nM.

B24: SEQ ID NO: 33(17) (mixed)
RNA: B16 RNA
modifications: idT-A(PHE)U(M)G(M)A(M)U(F)C(F)G(M)G(M)A(M)C(M)A(M)U(M)AAC(M)U(F)A(M)A(M)U(M)U(M)A(M)G(M)GG(M)G(M)TG(M)U(M)C(M)A(M)A(M)-idT (F=2'-F, M=2'-OMe, PHE=8-(propyl)phenyl-rA)
Work on B24 yielded an IC50 [4] of 0.038 nM.

B25: SEQ ID NO: 33(12) (mixed)
RNA: B16 RNA
modifications: idT-A(M)U(M)G(M)A(M)U(F)C(F)G(M)G(M)A(M)C(M)A(M)U(M)AAC(M)U(F)A(M)A(M)U(M)TA(M)G(M)GG(M)G(M)TG(M)U(M)C(M)A(M)A(M)-idT (F=2'-F, M=2'-OMe)
B25 gave an IC50 [4] of 0.048 nM.

B26: SEQ ID NO: 33(16) (mixed)
RNA: B16 RNA
modifications: idT-A(M)U(M)G(M)A(M)U(F)C(F)G(M)G(M)A(M)C(M)A(M)U(M)AAC(M)U(F)A(M)A(M)U(M)U(M)A(M)G(M)GG(M)G(M)T(M)G(M)U(M)C(M)A(M)A(M)-idT (F=2'-F, M=2'-OMe)
Binder B26 has an IC50 [4] of 0.063 nM.

B27: SEQ ID NO: 18 (ssRNA)
RNA: UGAUCGGACAUAACAUUGUUGGGGUGUCAA
modifications: 2'-F pyrimidines (U, C); purines 2'-OH
For B27, the IC50 [3] was 2.1 nM.
